Experimental data from the supplement of paper PMC10724198.
± gives the standard deviation of the averaged measurements.

Test system: Saccharomyces cerevisiae
Test: protein stability index of tFT-peptide fusion (C-terminal peptide) (PSI (0-1 scale)); higher = more stable (slower turnover)
Conditions: genetic background: wild type; temperature: 30 C
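Further: PSI is a weighted mean of sequencing reads over stability bins, variants kept only with over 10 reads, mCherry proximal and sfGFP distal, peptide attached via GGGS linker.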

Row | Sequence | protein stability index
1 | TEVWERGKNVGE | 0.635 ± 0.03
2 | TEWIRGTAVNSS | 0.701 ± 0.023
3 | TEYRRRPNETAM | 0.705 ± 0.037
4 | TFIKMEKKKDGG | 0.663 ± 0.034
5 | TFLMEMVPRLFI | 0.664 ± 0.036
6 | TFLPPTTSPYVL | 0.738 ± 0.052
7 | TFPPSAPQSSCS | 0.7041 ± 0.0027
8 | TFPRRCILNIQI | 0.635 ± 0.024
9 | TFQMAYHSRTAV | 0.637 ± 0.13
10 | TFREMPESIGNG | 0.654 ± 0.047
11 | TFSFPSPAPHSC | 0.781 ± 0.033
12 | TFSHRVICTGND | 0.733 ± 0.072
13 | TFSPPLSSPPGP | 0.706 ± 0.032
14 | TGEVSTRVGQRE | 0.66 ± 0.07
15 | TGIDLPHFVSLF | 0.658 ± 0.088
16 | TGKWRSFQAYYY | 0.667 ± 0.039
17 | TGNSPSRTGNGI | 0.647 ± 0.018
18 | TGSKKKKVEIEM | 0.679 ± 0.048
19 | TGSRHDLDGSMK | 0.679 ± 0.017
20 | TGWRFVRSKGGS | 0.741 ± 0.045
21 | THCSGAGPPSPP | 0.689 ± 0.068
22 | THKGAPTCRSAR | 0.6723 ± 0.0037
23 | THLASTESVVRP | 0.69 ± 0.033
24 | THPPATSPPPYP | 0.6631 ± 0.0057
25 | THTPPPSPLTLP | 0.671 ± 0.021
26 | THTTIQKTNQNE | 0.703 ± 0.026

Row | Sequence | protein stability index
27 | TIASGCTWSPGH | 0.645 ± 0.013
28 | TIDACFHSDWGC | 0.782 ± 0.11
29 | TIELNLPPSVVR | 0.642 ± 0.037
30 | TIGPVRSGHVLA | 0.6807 ± 0.0055
31 | TIIRQRHYAPNL | 0.6771 ± 0.0056
32 | TIMRGEPGQSHF | 0.741 ± 0.089
33 | TIPSSSQVPIGG | 0.641 ± 0.021
34 | TKEEDKNEGRRR | 0.662 ± 0.055
35 | TKFSSPPLVRTS | 0.71 ± 0.031
36 | TKKNKLRQKKTE | 0.6457 ± 0.0028
37 | TKLKKKGTKKKR | 0.662 ± 0.018
38 | TKPTRPVSPTHL | 0.693 ± 0.12
39 | TKQSKRKHESRT | 0.671 ± 0.044
40 | TKRLLPPRTVAI | 0.696 ± 0.066
41 | TKRRKKIPENRI | 0.6649 ± 0.0049
42 | TKSPYLTVNETA | 0.686 ± 0.055
43 | TKSRKWEERENQ | 0.682 ± 0.013
44 | TKTKKKTQEGSR | 0.739 ± 0.1
45 | TLFSVGSDAMIV | 0.708 ± 0.041
46 | TLFTRRSIMKGN | 0.62 ± 0.068
47 | TLGLTLSAFALT | 0.635 ± 0.043
48 | TLLAALIRFDAV | 0.691 ± 0.041
49 | TLLAPPAPTPAG | 0.684 ± 0.036
50 | TLLPPACFPTPP | 0.717 ± 0.017
51 | TLPARPSVPLPP | 0.629 ± 0.06
52 | TLPSPPSPSPRP | 0.679 ± 0.085

Row | Sequence | protein stability index
53 | TLQKKLTVNTKK | 0.738 ± 0.11
54 | TLRPKASPPAAL | 0.642 ± 0.021
55 | TLRTPGFSSSLH | 0.721 ± 0.025
56 | TLSPPLPPPSPS | 0.66129 ± 0.00029
57 | TLSSLVGACLYV | 0.614 ± 0.038
58 | TNGVNHIDAHGQ | 0.645 ± 0.018
59 | TNKKEPTMTRKK | 0.72528 ± 0.00042
60 | TNNLRLKVIGPK | 0.653 ± 0.021
61 | TNQITRHELTTY | 0.599 ± 0.043
62 | TNRNGQQRWEKG | 0.64 ± 0.0078
63 | TNRRSRLQVSSN | 0.635 ± 0.08
64 | TPAMPRNPTDDS | 0.651 ± 0.0068
65 | TPAPLLPRRTPP | 0.734 ± 0.073
66 | TPCSRMRPSLLF | 0.709 ± 0.11
67 | TPKTTGRPCDRT | 0.69 ± 0.0098
68 | TPLNPDSLDRPT | 0.657 ± 0.0097
69 | TPLNPLYCPPTP | 0.6384 ± 0.0061
70 | TPLSPPALPPPS | 0.659 ± 0.074
71 | TPLVLTLLTRRP | 0.709 ± 0.054
72 | TPPACTRIPPAN | 0.777 ± 0.12
73 | TPPLPPPPPPIH | 0.7413 ± 0.0029
74 | TPPPPAPSPPPP | 0.761 ± 0.059
75 | TPPPSLPPPPPP | 0.627 ± 0.07
76 | TPPRHTRTSQTV | 0.648 ± 0.0083
77 | TPRPRRNCGPGP | 0.717 ± 0.2
78 | TPSAPPPTHPYP | 0.684 ± 0.036

Row | Sequence | protein stability index
79 | TPSPPTLHPPPP | 0.691 ± 0.023
80 | TPSRLPPPLRSP | 0.703 ± 0.004
81 | TPTRPLSSALRL | 0.697 ± 0.05
82 | TPVAPGLSPPPL | 0.659 ± 0.066
83 | TQKKQKRKDQQR | 0.654 ± 0.01
84 | TQPDLAPPLPRS | 0.65 ± 0.017
85 | TQRLPTPPSIPL | 0.672 ± 0.017
86 | TQSSADCFTLDA | 0.719 ± 0.052
87 | TQYMRVVQAKPD | 0.659 ± 0.055
88 | TRDTEKTGRREP | 0.715 ± 0.0013
89 | TRFLRCACCFVC | 0.565 ± 0.036
90 | TRGSRGARGGGW | 0.716 ± 0.012
91 | TRKFATPRITVV | 0.6939 ± 0.0038
92 | TRKQSVIRIRMR | 0.653 ± 0.0082
93 | TRLAGINGLLSA | 0.689 ± 0.022
94 | TRLDLIDSLRHL | 0.731 ± 0.044
95 | TRLLPQRPLGGV | 0.717 ± 0.046
96 | TRMPTRRNEQIY | 0.683 ± 0.047
97 | TRMRWCGSGVKN | 0.809 ± 0.067
98 | TRPLIRRRHWID | 0.697 ± 0.025
99 | TRPSRRPPRPSS | 0.753 ± 0.22
100 | TRPTPTRADCFG | 0.685 ± 0.026
101 | TRQRSDRPRAPR | 0.6523 ± 0.00075
102 | TRRAAARAVSAR | 0.7 ± 0.066
103 | TRRFGSIINWVG | 0.59 ± 0.065
104 | TRRGPAGNKPRL | 0.749 ± 0.0092

Row | Sequence | protein stability index
105 | TRSADGFLGVMV | 0.739 ± 0.0092
106 | TRSDILGAERWG | 0.6794 ± 0.0033
107 | TRSQTASRSPTG | 0.672 ± 0.017
108 | TRTELGKRWIRR | 0.697 ± 0.061
109 | TRYKSMRAGVAG | 0.674 ± 0.067
110 | TSAEYKIETIFT | 0.688 ± 0.036
111 | TSAPPPPPPPPP | 0.608 ± 0.021
112 | TSAPRGNGKPEQ | 0.678 ± 0.016
113 | TSCPPPLAPSYD | 0.6909 ± 0.0045
114 | TSDPFGRPPETN | 0.643 ± 0.1
115 | TSGTPSRTHTLR | 0.612 ± 0.025
116 | TSLAPLPAPLRR | 0.725 ± 0.031
117 | TSPPPPSPPAHH | 0.625 ± 0.024
118 | TSPPPPSPPPPP | 0.785 ± 0.13
119 | TSSEREGHYCVR | 0.693 ± 0.034
120 | TSTTRRGPRSRF | 0.8168 ± 0.0029
121 | TTEESGGEGEGG | 0.664 ± 0.014
122 | TTKRQKRKKKQR | 0.633 ± 0.015
123 | TTLATVLRTFPG | 0.724 ± 0.031
124 | TTRALEAPARPN | 0.6518 ± 0.0054
125 | TTRHPRLHYIDP | 0.674 ± 0.019
126 | TTTRSDALPRGG | 0.713 ± 0.024
127 | TTTYQLSQTITI | 0.646 ± 0.041
128 | TVATTIRVTKVV | 0.582 ± 0.022
129 | TVFFVLGTESRV | 0.664 ± 0.032
130 | TVFPVLTTVEGL | 0.688 ± 0.03

Row | Sequence | protein stability index
131 | TVHTILYVPDEL | 0.677 ± 0.021
132 | TVIKMEKKKDGG | 0.6691 ± 0.0047
133 | TVKSCGRTLFSW | 0.6874 ± 0.0051
134 | TVLRPKERQEHN | 0.721 ± 0.038
135 | TVPLPPPPFLDS | 0.772 ± 0.042
136 | TVPNLTPALPPL | 0.525 ± 0.11
137 | TVRWRRGTGGAR | 0.704 ± 0.019
138 | TVTPAARTWHGR | 0.67782 ± 0.00032
139 | TVTPPAPCPPAG | 0.709 ± 0.032
140 | TWYYRYSCCQLP | 0.696 ± 0.014
141 | TYKEHNKTRETG | 0.686 ± 0.076
142 | TYLQYKQKMKKH | 0.686 ± 0.15
143 | TYSILLRVNCFK | 0.601 ± 0.004
144 | TYWAPPFPLSLP | 0.52 ± 0.019
145 | VACFLCTPKWFE | 0.69 ± 0.057
146 | VACIIIDFTRWY | 0.536 ± 0.019
147 | VAESGRGAGGDF | 0.7314 ± 0.0029
148 | VAFPRSSTLGPY | 0.696 ± 0.027
149 | VAGAGAGREAAY | 0.616 ± 0.026
150 | VAGLQGGSGEGG | 0.576 ± 0.06
151 | VAGTLPFMEFTS | 0.722 ± 0.023
152 | VAIGGGLGGDRC | 0.719 ± 0.032
153 | VALPPSHLSAFL | 0.6887 ± 0.0039
154 | VALSLTSIFFMS | 0.556 ± 0.041
155 | VANGGVIVRGRC | 0.668 ± 0.012
156 | VAPAHPPHHRNL | 0.6626 ± 0.0036

Row | Sequence | protein stability index
157 | VAPPIPSKAGHL | 0.753 ± 0.2
158 | VAPPLAPSPPLP | 0.6678 ± 0.0013
159 | VAPPSSFPPPRL | 0.726 ± 0.056
160 | VASDGGYGYLRF | 0.797 ± 0.077
161 | VASLGFVGFCRF | 0.713 ± 0.06
162 | VAWAGRGPGRSG | 0.713 ± 0.024
163 | VAWCYCSGDTGV | 0.7 ± 0.035
164 | VAWYSLAEGCEG | 0.641 ± 0.043
165 | VCALGWWASWVW | 0.5512 ± 0.0013
166 | VCDGIIQGNGTI | 0.705 ± 0.021
167 | VCDLLLTLSFCV | 0.587 ± 0.017
168 | VCFCLGNVTMEF | 0.732 ± 0.017
169 | VCGRWVYPGGCR | 0.61 ± 0.01
170 | VCGWGFLLGVFV | 0.5107 ± 0.0022
171 | VCGYLSIVIWLR | 0.423 ± 0.24
172 | VCIGVGGGVLGL | 0.6746 ± 0.0036
173 | VCNLSRRGLCHG | 0.584 ± 0.11
174 | VCPRLISPLILL | 0.584 ± 0.027
175 | VCRADADRFVGL | 0.71 ± 0.059
176 | VCRCYILSFPQR | 0.688 ± 0.028
177 | VCRGAIPIERFR | 0.715 ± 0.15
178 | VCSEARRKSVAL | 0.673 ± 0.02
179 | VCVAACVGAHFA | 0.656 ± 0.083
180 | VDASQTRYSRGS | 0.73964 ± 0.00026
181 | VDDIIGIRKRNT | 0.691 ± 0.07
182 | VDFGTLISEDRM | 0.736 ± 0.036

Row | Sequence | protein stability index
183 | VDFLLRDPPGPS | 0.7201 ± 0.0065
184 | VDGSYCGTLASY | 0.6568 ± 0.0033
185 | VDHRFLWALSSF | 0.751 ± 0.043
186 | VDRGGRVGERGR | 0.597 ± 0.031
187 | VDSAPRPPPEPC | 0.649 ± 0.041
188 | VDSSGSQPRGNR | 0.648 ± 0.039
189 | VDTNIRRTATYS | 0.729 ± 0.066
190 | VDTPPPHHSPLL | 0.733 ± 0.068
191 | VEGCVKGGCGGG | 0.662 ± 0.052
192 | VERSEGRLGVVG | 0.686 ± 0.08
193 | VESGVLCPGVGA | 0.634 ± 0.02
194 | VEVRRMCSGQLG | 0.7136 ± 0.00096
195 | VEWLGWFGISNK | 0.76 ± 0.017
196 | VFAGLHSLCFFF | 0.641 ± 0.023
197 | VFATRALSQRLI | 0.526 ± 0.011
198 | VFCGCGGCVSLG | 0.655 ± 0.014
199 | VFDIQLLDGGGP | 0.685 ± 0.025
200 | VFFPLFLNGSNV | 0.695 ± 0.018
201 | VFFRGVVVLLRL | 0.472 ± 0.048
202 | VFGCAGVGGDCG | 0.67 ± 0.028
